The values that follow come from publication PMC10793455 (bioRxiv, 2023).

Assay [1] concerns the target T1, F-actin (rabbit skeletal muscle actin filaments) (rabbit, UniProt P68135 1-377, methylated His73 (His73me)). The assay is described as follows: other fluorescence titration.
Assay [2] concerns the target T1, F-actin (rabbit skeletal muscle actin …). The assay is described as follows: fluorescence polarisation.
The target is the same in assay [3]. Put plainly: cryo-EM structure.
The target is the same in assay [4]. Put plainly: fluorescence polarisation. This is another data set of the same source.
Assay [5] deals with Alexa-488 labeled F-actin (rabbit skeletal muscle actin) (rabbit, UniProt P68135 1-377). Put plainly: single-molecule TIRF microscopy.
Assay [6] addresses T1, F-actin (rabbit skeletal muscle actin …). Put plainly: fluorescence polarisation. This is another data set of the same source.

B1: SipAC (SipA residues 425–685), unlabeled (domain or fragment)
chain: TGETTSFDEVDGVTSKSIIGKPVQATVHGVDDNKQQSQTAEIVNVKPLASQLAGVENVKTDTLQSDTTVITGNKAGTTDNDNSQTDKTGPFSGLKFKQNSFLSTVPSVTNMHSMHFDARETFLGVIRKALEPDTSTPFPVRRAFDGLRAEILPNDTIKSAALKAQCSDIDKHPELKAKMETLKEVITHHPQKEKLAEIALQFAREAGLTRLKGETDYVLSNVLDGLIGDGSWRAGPAYESYLNKPGVDRVITTVDGLHMQR
B1: the dissociation constant (Kd) in assay [1] was found to be 0.18 nM; in assay [2] it was 5 nM. Further, the “stoichiometry N” value in assay [3] worked out at 0.5 SipAC per actin subunit.

B2: FM-SipAC (SipA residues 425–685 labeled with fluorescein maleimide) (domain or fragment)
chain: B1 chain
modifications: fluorescein maleimide (FM) label
In turn, B2 yielded a Kd in assay [4] of roughly 0.9 nM.

B3: Alexa-647-SipAC (SipA residues 425–685 labeled with Alexa-647) (domain or fragment)
chain: B1 chain
modifications: Alexa-647 label
As to B3, the Kd in assay [5] turned out to be 0.1 nM.

B4: FM-SipAC-ΔArm2 (SipA residues 425–658 labeled with fluorescein maleimide) (domain or fragment)
chain: TGETTSFDEVDGVTSKSIIGKPVQATVHGVDDNKQQSQTAEIVNVKPLASQLAGVENVKTDTLQSDTTVITGNKAGTTDNDNSQTDKTGPFSGLKFKQNSFLSTVPSVTNMHSMHFDARETFLGVIRKALEPDTSTPFPVRRAFDGLRAEILPNDTIKSAALKAQCSDIDKHPELKAKMETLKEVITHHPQKEKLAEIALQFAREAGLTRLKGETDYVLSNVLDGLIGDGSWRA
modifications: fluorescein maleimide (FM) label
In assay [6], B4 showed a dissociation constant Kd of 120 nM. That is a sub-micromolar value.

B5: SipAC-Core (SipA residues 512–658), unlabeled (domain or fragment)
chain: TGPFSGLKFKQNSFLSTVPSVTNMHSMHFDARETFLGVIRKALEPDTSTPFPVRRAFDGLRAEILPNDTIKSAALKAQCSDIDKHPELKAKMETLKEVITHHPQKEKLAEIALQFAREAGLTRLKGETDYVLSNVLDGLIGDGSWRA
B5 returned a dissociation constant Kd in assay [1] of 81 nM. That is a double-digit nanomolar value.
